Reference: CN114736303A (YINGNUO LAKE MEDICINE HANGZHOU CO LTD, dated 2022)

Target: 4-1BB-mFc (UniProt Q07011 24-186)
Assay: SPR (Biacore), multi-cycle kinetics, antibody captured by anti-human IgG on CM5 chip, 4-1BB antigen as analyte

| Binder | Kd [nM] | koff [s⁻¹] | kon [M⁻¹ s⁻¹] |
| --- | --- | --- | --- |
| hu6F9B1A6/hu10B2-scFv双功能抗体 (人源化PD-L1/4-1BB双功能抗体) (bispecific antibody, human IgG4 S228P, F234A L235A, also called hu6F9B1A6/4-1BB; hu6F9B1A6-10B2-CC) heavy: QVQLVQSGAEVKKPGSSVKVSCKASGYTFIGYTVHWVRQAPGQGLEWIGWIYPGSGSIKYNEKFKDRATLTADKSTSTVYMELSSLRSEDTAVYYCARHGTGKFNYFDVWGQGTTVTVSSASTKGPSVFPLAPCSRSTSESTAALGCLVKDYFPEPVTVSWNSGALTSGVHTFPAVLQSSGLYSLSSVVTVPSSSLGTKTYTCNVDHKPSNTKVDKRVESKYGPPCPPCPAPEAAGGPSVFLFPPKPKDTLMISRTPEVTCVVVDVSQEDPEVQFNWYVDGVEVHNAKTKPREEQFNSTYRVVSVLTVLHQDWLNGKEYKCKVSNKGLPSSIEKTISKAKGQPREPQVYTLPPSQEEMTKNQVSLTCLVKGFYPSDIAVEWESNGQPENNYKTTPPVLDSDGSFFLYSRLTVDKSRWQEGNVFSCSVMHEALHNHYTQKSLSLSPGKGGGGSGGGGSDVVVTQTPLSLSVTPGQPASISCRSSQSLTNSYGHTYLSWYLQKPGQSPQLLIYGISIRFSGVPDRFSGSGSGTDFTLKISRVEAEDVGVYYCLQGTHQPWTFGGGTKVEIKGGGGSGGGGSGGGGSQVQLVESGGGVVQPGRSLRLSCAASGFTFSTFGLHWVRQAPGKGLEWVAYISSDSNTIYYADTMKGRFTISRDNSKNTLYLQMNSLRAEDTAVYYCTRGDPAYYGYGGRFVYALDFWGQGTLVTVSS VL: DIQLTQSPSFLSASVGDRVTITCRASSTVNYMHWYQQKPGKAPKPWIYATFNLASGVPSRFSGSGSGTEYTLTISSLQPEDFATYYCQTWSSYPLTFGQGTKLEIK | 0.423 | 0.000122 | 289000 |
| hu10B2 (人源化4-1BB抗体) (antibody, V domains shown, The antibody was captured with anti-human IgG in SPR; also called 4-1BB(hu10B2); hu10B2 4-1BB抗体) VH: QVQLVESGGGVVQPGRSLRLSCAASGFTFSTFGLHWVRQAPGKGLEWVAYISSDSNTIYYADTMKGRFTISRDNSKNTLYLQMNSLRAEDTAVYYCTRGDPAYYGYGGRFVYALDFWGQGTLVTVSS VL: DVVVTQTPLSLSVTPGQPASISCRSSQSLTNSYGHTYLSWYLQKPGQSPQLLIYGISIRFSGVPDRFSGSGSGTDFTLKISRVEAEDVGVYYCLQGTHQPWTFGGGTKVEIK | 0.338 | 0.000204 | 602000 |
